Test results reported in article PMC4943861 (ACS chemical biology, 2015).

What was measured:
[1] = target: Abl3D (UniProt P00519 38-512); assay: cell-based or functional assay
[2] = target: Fyn (human (endogenous in K562), UniProt P06241 1-537); assay: cell-based or functional assay
Fyn, sequence (P06241 whole entry): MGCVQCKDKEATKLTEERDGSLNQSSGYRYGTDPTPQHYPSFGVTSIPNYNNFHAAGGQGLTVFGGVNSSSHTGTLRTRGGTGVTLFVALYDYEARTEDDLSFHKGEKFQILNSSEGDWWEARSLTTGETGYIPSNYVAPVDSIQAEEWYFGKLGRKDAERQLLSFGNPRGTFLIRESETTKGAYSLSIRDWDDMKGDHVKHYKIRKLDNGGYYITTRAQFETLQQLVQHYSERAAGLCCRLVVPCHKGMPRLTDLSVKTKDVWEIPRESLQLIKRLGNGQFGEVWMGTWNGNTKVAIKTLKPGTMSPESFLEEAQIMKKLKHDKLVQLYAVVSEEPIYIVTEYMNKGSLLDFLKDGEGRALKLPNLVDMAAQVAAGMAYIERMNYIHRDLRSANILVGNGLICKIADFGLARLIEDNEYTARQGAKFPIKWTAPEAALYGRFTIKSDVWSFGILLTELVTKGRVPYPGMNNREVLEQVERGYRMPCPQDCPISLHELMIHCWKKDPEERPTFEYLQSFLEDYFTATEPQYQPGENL

Abl3D, sequence (P00519 38-512): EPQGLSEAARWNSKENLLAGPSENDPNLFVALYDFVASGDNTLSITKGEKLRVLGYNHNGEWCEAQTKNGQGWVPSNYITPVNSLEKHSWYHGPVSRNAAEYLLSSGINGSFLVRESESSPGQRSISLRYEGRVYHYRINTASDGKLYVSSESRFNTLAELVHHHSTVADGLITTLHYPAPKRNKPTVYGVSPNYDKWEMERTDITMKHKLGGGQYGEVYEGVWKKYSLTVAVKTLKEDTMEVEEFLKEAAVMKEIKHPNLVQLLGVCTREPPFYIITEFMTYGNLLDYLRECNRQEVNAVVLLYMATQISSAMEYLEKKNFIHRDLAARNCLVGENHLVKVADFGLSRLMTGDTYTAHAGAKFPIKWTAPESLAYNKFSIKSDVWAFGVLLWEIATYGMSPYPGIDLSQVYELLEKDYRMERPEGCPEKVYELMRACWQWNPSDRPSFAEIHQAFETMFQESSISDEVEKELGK

B1: SNAP(HA4)-4 (designed binder)
chain: DKDCEMKRTTLDSPLGKLELSGCEQGLHEIIFLGKGTSAADAVEVPAPAAVLGGPEPLMQATAWLNAYFHQPEAIEEFPVPALHHPVFQQESFTRQVLWKLLKVVKFGEVISYSHLAALAGNPAATAAVKTALSGNPVPILIPCHRVVQGDLDVGGYEGGLAVKEWLLAHEGHRLGKVSSVPTKLEVVAATPTSLLISWDAPMSSSSVYYYRITYGETGGNSPVQEFTVPYSSSTATISGLSPGVDYTITVYAWGEDSAGYMFMYSPISINYRT
modifications: compound 4 (O6-benzylguanine derivative of the pan-kinase inhibitor 2) covalently conjugated to SNAPtag
For B1, the “IC50, in vitro kinase activity assay of Abl3D” value [1] was 8.3 nM and the “IC50 of kinase activity of purified FYN, relative to monovalent 4” value [2] was 8 fold more potent than 4.
